Measured values reported in patent publication US20210221917A1.

Legend:
FcyRIIb [1] = target: FcyRIIb (UniProt P31994); assay: cell-based competitive TR-FRET assay (CisBio Bioassays); reference: Construct 5 (SIF3)
FcyRIIb [2] = target: FcyRIIb (UniProt P31994); assay: cell-based competitive TR-FRET
FcyRIIa = FcyRIIa (UniProt P12318); assay: cell-based competitive TR-FRET
FcyRIIIa = FcyRIIIa (UniProt P08637); assay: cell-based competitive TR-FRET
FcγRIIIa = FcγRIIIa (UniProt P08637); assay: cell-based competitive TR-FRET
FcγRIIb = FcγRIIb (UniProt P31994); assay: cell-based competitive TR-FRET
FcγRIIa = FcγRIIa (UniProt P12318); assay: cell-based competitive TR-FRET

| fold increase in binding compared to Construct 5 (SIF3) (FcyRIIb [1]) [fold] | EC50 (FcyRIIb [2]) [nM] | EC50 (FcyRIIa) [nM] | EC50 (FcyRIIIa) [nM] | EC50 (FcγRIIIa) [nM] | EC50 (FcγRIIb) [nM] | EC50 (FcγRIIa) [nM] | Substance |
| --- | --- | --- | --- | --- | --- | --- | --- |
| > 300 | 0.0165 | 0.126 | 26.7 | – | – | – | Construct 5-FcyRIIb+ mutant (Construct 5 backbone with S267E/L328F) (from UniProt P01857 27-328; P0DOX5 223-449) |
| – | – | – | – | 96.2 | 1690 | 502 | IgG1 |
